Experimental data taken from patent US7052851B2, “Crystal structure of cysteine protease” (Novartis International AG, priority 1996, dated 2006).
The star is where a group is joined. CH2F = FC*

Molecular target: T1, recombinant human CPP32 (Homo sapiens, UniProt P42574)
T1 construct: β-CHAIN; 29; 175; CPP32 P17 SUBUNIT; α-CHAIN; 176; 277; CPP32 P12 SUBUNIT; made in house; host or cells: E. coli BL21 (DE3), pET21b
T1 sequence (P42574 29-175): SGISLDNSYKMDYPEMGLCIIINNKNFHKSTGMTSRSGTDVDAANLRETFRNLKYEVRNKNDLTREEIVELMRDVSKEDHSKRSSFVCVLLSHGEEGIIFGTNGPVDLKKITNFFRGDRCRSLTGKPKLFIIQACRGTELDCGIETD
T1 sequence (P42574 176-277): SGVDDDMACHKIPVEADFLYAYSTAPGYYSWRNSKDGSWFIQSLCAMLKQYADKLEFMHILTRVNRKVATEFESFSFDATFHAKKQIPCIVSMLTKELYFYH
Assay: CPP32 protease activity inhibition (enzyme treated with irreversible inhibitor before crystallization)
Type: biochemical
Details: slight excess (1.6×) of inhibitor added to purified recombinant human CPP32 (C-terminal 6His) in 50 mM DTT, 50 mM HEPES, pH 8.0, on ice
Source text: As defined herein, purified CPP32 is more than 95% homogeneous. Protein homogeneity is determinable according to analytical methods well-known in the art, e.g. sequence analysis, electrophoresis, spectroscopic or chromatographic techniques. The purified protein is enzymatically active. Appropriate assays for determining CPP32 protease activity towards a suitable substrate, e.g. a natural substrate, such as PARP, or a synthetic substrate which is cleavable by CPP32, is known in the art. Advantagously, a peptide, such as aminomethylcoumarin, is used as synthetic substrate. […]
Recombinant human CPP32 expressed in a soluble form in E. coli (E. coli BL21) is purified to homogeneity by Ni^2+ chromatography using an imidazole gradient (60 mM-1 M). […] The purified CPP32 protein is more than 95% homogeneous, as determined by SDS-PAGE (10–20% gradient gel), reverse phase high performance liquid chromatography (RP-HPLC), MALDI-TOF mass spectrometry, N-terminal sequence and amino acid analysis. […] The purified CPP32 protein which is a (p17p12)2 tetramer in solution, as analyzed by dynamic light scattering, compares to the published CPP32 amino acid sequence (Fernandes-Alnemri, T., Litwack, G. & Alnemri, E. S. (1994). J. Biol. Chem. 269, 30761–30764, FIG. 1, p.30762) as follows: […]

## Ac-Asp-Val-Ala-Asp-fluoromethylketone (Ac-DVAD-CH2F; SMILES CC(=O)N[C@@H](CC(=O)O)C(=O)N[C@H](C(=O)N[C@@H](C)C(=O)N[C@@H](CC(=O)O)C(=O)CF)C(C)C)
  enzyme inhibited: 99.9%
